The values that follow come from PMC12407261.

The target of assay [1] is Streptomyces lydicus Family 2B encapsulin shell protein Sl‐Enc2 with N‐terminal His‐tag (Streptomyces lydicus). Briefly: cryo-EM structure; Sl‐Enc2 majority mixed sample, 2 mg/mL in 150 mM NaCl, 25 mM Tris pH 8.0; consensus refinement with icosahedral symmetry imposed, 2.59 Å.
The target in assay [2] is Streptomyces lydicus Family 2B encapsulin shell protein Sl‐Enc1 with N‐terminal His‐tag (Streptomyces lydicus). Put plainly: affinity purification with mass spectrometry; two-gene operon co-expressed in E. coli BL21 (DE3), only one of the two shell proteins His-tagged; Ni-NTA then SEC; SDS-PAGE bands identified by tryptic digest and LC-MS; ratio by gel densitometry.

“Streptomyces lydicus Family 2B encapsulin shell protein Sl‐Enc2 with N‐terminal His‐tag (natural protein)”: the stoichiometry N in assay [1] amounted to 60.
Take “Streptomyces lydicus Family 2B encapsulin shell protein Sl‐Enc2, untagged (natural protein)”: in assay [2], the apparent share of Sl‐Enc1 in the purified mixed shells (gel densitometry) came out at 60% and the apparent share of Sl‐Enc2 in the purified mixed shells (gel densitometry) worked out at 40%.
